± gives the uncertainty stated by the source.
B1: Dynamin-binding protein, residues 146 to 206; numbered along this chain, Q6XZF7 (parent)
chain: SMGQARALMGLSAQLDEELDFREGDVITIIGVPEPGWFEGELEGRRGIFPEGFVELLGPLR

Variants of: B1
Experiment: abundance fitness (aPCA) (normalised: wild type 0, dead -1); higher = more abundant; growth selection in yeast, the domain comes from the species named
Conditions: Homo sapiens

Variant | abundance fitness
SMGQARALMGLSAQLDEELDFWEGDVITIIGVPEPGWFEGELEGRRGIFPEGFVELLGPLR [R22W] | -0.542 ± 0.11
SMGQARALMGLSAQLDEELDFYEGDVITIIGVPEPGWFEGELEGRRGIFPEGFVELLGPLR [R22Y] | -0.352 ± 0.19
SMGQARALMGLSAQLDEELDFQEGDVITIIGVPEPGWFEGELEGRRGIFPEGFVELLGPLR [R22Q] | -0.027 ± 0.089
SMGQARALMGLSAQLDEELDFLEGDVITIIGVPEPGWFEGELEGRRGIFPEGFVELLGPLR [R22L] | -0.282 ± 0.14
SMGQARALMGLSAQLDEELDFCEGDVITIIGVPEPGWFEGELEGRRGIFPEGFVELLGPLR [R22C] | 0.081 ± 0.11
SMGQARALMGLSAQLDEELDFIEGDVITIIGVPEPGWFEGELEGRRGIFPEGFVELLGPLR [R22I] | -0.191 ± 0.064
SMGQARALMGLSTQLDEELDFREGDVITIIGVPEPGWFEGELEGRRGIFPEGFVELLGPLR [A13T] | 0.353 ± 0.23
SMGQARALMGLSPQLDEELDFREGDVITIIGVPEPGWFEGELEGRRGIFPEGFVELLGPLR [A13P] | 0.013 ± 0.078
SMGQARALMGLSHQLDEELDFREGDVITIIGVPEPGWFEGELEGRRGIFPEGFVELLGPLR [A13H] | -0.548 ± 0.072
SMGQARALMGLSEQLDEELDFREGDVITIIGVPEPGWFEGELEGRRGIFPEGFVELLGPLR [A13E] | -0.57 ± 0.18
SMGQARALMGLSIQLDEELDFREGDVITIIGVPEPGWFEGELEGRRGIFPEGFVELLGPLR [A13I] | -0.541 ± 0.077
SMGQARALMGLSQQLDEELDFREGDVITIIGVPEPGWFEGELEGRRGIFPEGFVELLGPLR [A13Q] | -0.348 ± 0.12
SMGQARALMGLSAQLDCELDFREGDVITIIGVPEPGWFEGELEGRRGIFPEGFVELLGPLR [E17C] | 0.07 ± 0.042
SMGQARALMGLSAQLDTELDFREGDVITIIGVPEPGWFEGELEGRRGIFPEGFVELLGPLR [E17T] | -0.101 ± 0.053
SMGQARALMGLSAQLNEELDFREGDVITIIGVPEPGWFEGELEGRRGIFPEGFVELLGPLR [D16N] | -0.315 ± 0.1
SMGQARALMGLSAQLFEELDFREGDVITIIGVPEPGWFEGELEGRRGIFPEGFVELLGPLR [D16F] | -0.763 ± 0.14
SMGQARALMGLSAQSDEELDFREGDVITIIGVPEPGWFEGELEGRRGIFPEGFVELLGPLR [L15S] | 0.283 ± 0.059
SMGQARALMGLSAQFDEELDFREGDVITIIGVPEPGWFEGELEGRRGIFPEGFVELLGPLR [L15F] | 0.037 ± 0.052
SMGQARALMGLSAQQDEELDFREGDVITIIGVPEPGWFEGELEGRRGIFPEGFVELLGPLR [L15Q] | 0.137 ± 0.076
SMGQARALMGLSAQGDEELDFREGDVITIIGVPEPGWFEGELEGRRGIFPEGFVELLGPLR [L15G] | 0.08 ± 0.082
SMGQARALMGLSAQEDEELDFREGDVITIIGVPEPGWFEGELEGRRGIFPEGFVELLGPLR [L15E] | 0.034 ± 0.3
SMGQARALMGLSAQTDEELDFREGDVITIIGVPEPGWFEGELEGRRGIFPEGFVELLGPLR [L15T] | 0.273 ± 0.12

Variant | abundance fitness
SMGQARALMGLSAQLDEECDFREGDVITIIGVPEPGWFEGELEGRRGIFPEGFVELLGPLR [L19C] | -0.684 ± 0.12
SMGQARALMGLSAQLDEEDDFREGDVITIIGVPEPGWFEGELEGRRGIFPEGFVELLGPLR [L19D] | -0.413 ± 0.17
SMGQARALMGLSAQLDEEHDFREGDVITIIGVPEPGWFEGELEGRRGIFPEGFVELLGPLR [L19H] | -0.768 ± 0.15
SMGQARALMGLSAQLDEEADFREGDVITIIGVPEPGWFEGELEGRRGIFPEGFVELLGPLR [L19A] | -0.525 ± 0.076
SMGQARALMGLSAQLDEEKDFREGDVITIIGVPEPGWFEGELEGRRGIFPEGFVELLGPLR [L19K] | -0.705 ± 0.35
SMGQARALMGLSAQLDEELDEREGDVITIIGVPEPGWFEGELEGRRGIFPEGFVELLGPLR [F21E] | -0.481 ± 0.17
SMGQARALMGLSAQLDEELDIREGDVITIIGVPEPGWFEGELEGRRGIFPEGFVELLGPLR [F21I] | -0.435 ± 0.065
SMGQARALMGLSAQLDEELDTREGDVITIIGVPEPGWFEGELEGRRGIFPEGFVELLGPLR [F21T] | -0.465 ± 0.11
SMGQARALMGLSAQLDEELDVREGDVITIIGVPEPGWFEGELEGRRGIFPEGFVELLGPLR [F21V] | -0.711 ± 0.09
SMGQARALMGLSAQLDEELDNREGDVITIIGVPEPGWFEGELEGRRGIFPEGFVELLGPLR [F21N] | -0.832 ± 0.11
SMGQARALMGLSADLDEELDFREGDVITIIGVPEPGWFEGELEGRRGIFPEGFVELLGPLR [Q14D] | -0.145 ± 0.058
SMGQARALMGLSAILDEELDFREGDVITIIGVPEPGWFEGELEGRRGIFPEGFVELLGPLR [Q14I] | -0.354 ± 0.062
SMGQARALMGLSAKLDEELDFREGDVITIIGVPEPGWFEGELEGRRGIFPEGFVELLGPLR [Q14K] | -0.092 ± 0.29
SMGQARALMGLSAYLDEELDFREGDVITIIGVPEPGWFEGELEGRRGIFPEGFVELLGPLR [Q14Y] | -0.537 ± 0.16
SMGQARALMGLSAVLDEELDFREGDVITIIGVPEPGWFEGELEGRRGIFPEGFVELLGPLR [Q14V] | -0.175 ± 0.082
SMGQARALMGLSARLDEELDFREGDVITIIGVPEPGWFEGELEGRRGIFPEGFVELLGPLR [Q14R] | 0.142 ± 0.08
SMGQARALMGLSAQLDEILDFREGDVITIIGVPEPGWFEGELEGRRGIFPEGFVELLGPLR [E18I] | -0.212 ± 0.082
SMGQARALMGLSAQLDEKLDFREGDVITIIGVPEPGWFEGELEGRRGIFPEGFVELLGPLR [E18K] | 0.23 ± 0.38
SMGQARALMGLSAQLDENLDFREGDVITIIGVPEPGWFEGELEGRRGIFPEGFVELLGPLR [E18N] | -0.236 ± 0.093
SMGQARALMGLSAQLDEGLDFREGDVITIIGVPEPGWFEGELEGRRGIFPEGFVELLGPLR [E18G] | -0.17 ± 0.039
SMGQARALMGLMAQLDEELDFREGDVITIIGVPEPGWFEGELEGRRGIFPEGFVELLGPLR [S12M] | -0.083 ± 0.23
SMGQARALMGLLAQLDEELDFREGDVITIIGVPEPGWFEGELEGRRGIFPEGFVELLGPLR [S12L] | -0.641 ± 0.12

Source: the Human Domainome abundance scans (Beltran et al. 2025)
